Assay: soluble on expression in E. coli; label from the status in PepcDB or PDB records
For “MFGWRGRIGLIVPSSNTTMEMELHSFLPEGVSLHTSRMPLKSITDEELFKMNSYAIEAASLLADAGVEVIAFGCSSGSFIGGQDFEKELEMKIEEEVNIETFTTSTAVLEALDVLDAQSLLIVTPYSDEINQKEKEFLEGNGFEVLDIKGLNLTDNLEIGKLEPYVVYRLAKAMFAGDADAIFISCTNLRTFEIIEKLERDLGVPVITSNQATLWMALRQIDVRDQLPLGKLLREY”, the “soluble on expression in E. coli” value was “soluble”. With “SSFLGGLFGPACEIDVILNDAESRKTAELKTEEGKLEKHYLFYDGESVSGKVNINVKQTSKRLEHQGIRIEFVGQIELFSDKSNTHEFVNLVKELALPGELTQNRSYDFEFMQVEKPYESYVGANVRLRYFLKVTIVRRLSDLVKEYDLIVHQLATYPDVNNSIKMEVGIEDCLHIEFEYNKSKYHLKDVIVGKIYFLLVRIKIQHMELQLIKKEMTGIGPSTTTETETVAKYEIMEGAPVKGESIPIRLFLAGYDLTPTMRDVNKKFSVRYFLNLVLVDEEDRRYFKQQEIVLWRKAPEKMRKRNFHQRYESPEPRPSLSAEQPEM” the “soluble on expression in E. coli” value was “soluble”. In the case of “MGHHHHHHGGHMSLKIYVVYDSEGEHTKVLAEAIAEGARENDAAEVFIDHVDQADIRKLKDMDAIIWGCPGHFGTISSGLKTWIDRLGYLWAEGELINKVGAVFCTTATTHGGLEMTMHNLITPMFHQGMIVVGLPGNVPENALYGSYYGAGVTCPVDSDELMSEEGIQLGRALGRRVSQVTGNLTAGQEGGS”, the “soluble on expression in E. coli” value is reported as “soluble”. In the case of “MGSDKIHHHHHHLAKAELTQIPVSQMVIGLTVKLPLSWTNHPFFRSKVKLEQQVQIEMIKGLDVSFVYVIEGHDLLPHVSEPVEIEQPEEVVEQEIDYRPLAKKSMRISQQRFVKSVNDSRTVFGKIVSDPEGAYREAATLVEDLVDHLYESETPQLTIVGSGEIDVSVTQHGISVAVLSMMIAHSLVLSKKDVRDIALGSLFHDIGKLKVPDAIRRKKRGDLSDHEINFLKMHPNFGYDMLNRTGLFPEAMLDIVLHHHEFIDGSGFPNQLTEAKILLTTQVVSLANDYETLLNLHRTPQIALGILFKTHSGKHADNLIAVLVKILGIYPPGTIVRLTDDSIAKVMMTTADVKQPHVWSCNLSGGEPSFRFLINEDVQVQEVMKLDELTDGAVKTLQANNPISFYFNNFDH”, the “soluble on expression in E. coli” value is reported as “not soluble”. For “MVAASEGNVVIEVDMANGWRGNASGSTSHSGITYSADGVTFAALGDGVGAVFDIARPTTLEDAVIAMVVNVSAEFKASEANLQIFAQLKEDWSKGEWDCLAASSELTADTDLTLTCTIDEDDDKFNQTARDVQVGIQAKGTPAGTITIKSVTITLAQEAYSANVDHLRDLAPSDFPIGVAVSNTDSATYNLLTNSREQAVVKKHFNHLTAGNIMKMSYMQPTEGNFNFTNADAFVDWATENNMTVHGHALVWHSDYQVPNFMKNWAGSAEDFLAALDTHITTIVDHYEAKGNLVSWDVVNAAIDDNSPANFRTTDSAFYVKSGNSSVYIERAFQTARAADPAVILYYNDYNIEQNNAKTTKMVDMVKDFQARSIPIDGVGFQMHVCMNYPSIANISAAMKKVVDLGLLVKITELDVAVNQPHCDAYPANKINPLTEAAQLAQKKRYCDVVKAYLDTVPVNQRGGISVWGTTDANTWLDGLYREQFEDEKISWPLLFDNNYNDKPALRGFADALIGTQCTNTHELHHHHHH”, the “soluble on expression in E. coli” value was “soluble”. For “MTTALKIDFISDVSCPWCVIGLRALDQALEALGDEVQAQIHFQPFELNPNMPAEGQDIKEHIAEKYGSTPEQIEAIHETIRERGAELGFTFGKGERRIYNTFDAHRLLHWAEQEGKQPALKQALFVAYFSELKDPSSHQTLADVAQKVGLDRLRAQAILDSDEFASEVREAEQLWTSRGITSVPTMVFNDQYAVSGGQPVEVFVSAIRQMLSESK”, the “soluble on expression in E. coli” value was “not soluble”. In the case of “MSPKVTKEHKDKRQAEILEAAKTVFKRKGFELTTMKDVVEESGFSRGGVYLYFSSTEEMFRRIIETGLDEGLRKLDKSAEHQSVWASISSYLDELTEGLRDVADTLAPVQFEYLVTAWRNEERRQYLEKRYDLFVERFSRLLQKGIDQGEFQPVQPLATIAKFFLNMNDGIIQNALYFDEEKADVSGLAESAKLYLKTVLQADEK”, the “soluble on expression in E. coli” value is reported as “soluble”. With “MEEWPALQWSQGTPASGPALQALEEYAFVPRDDESRQGIRTDALLVIRDGRLLYERYAGATGPQTPHLAWSASKSLLAVLLGVAFGEGRFQLQDPAAKFYPPLEAHPDITLADLLHWASGLDWQEDYEYAPLNSSVVAMLYTRGHRDMAAFTVQQAASGPPGQVFRYSSGDSNLLAASLRGMVGEGQYADYPWRALFEPLGITQAVWERDAAGTFVASSYLYLTARDLARIGLLMQRDGRWRDRQLLPKAWVEFCRTPFRGYRANQDVAVAGGHWWLNREVDGAPRPWPDAPADTYAALGHWGQALYVLPAQRLVIVRYGDDRDGSYQHNELLKRVLAAFATPEQPLEHHHHHH” the “soluble on expression in E. coli” value was “not soluble”. In the case of “MGSDKIHHHHHHMNVVVQKYGGSSVATPERIKNVAQRIKKKVDEGYKVVVVVSAMGKTTDNLIKLAKEISPRPDSRELDMLLATGEQVSAALLSMALKDLGVKAKSLNAFQVKIKTTPHHTSARIVDIDDSVIRENLKDYDVLVVTGFQGVNEHGDLTTLGRGGSDTSAVALAAKLRVPCEIYSDVDGIYTCDPRVHPRAKKLAYITYDEALELTALGAKVLHSRSVEIAKKYGIPIYCASSFTEEEGTMVVERLPEWLEEPVVTGATISHGQIKVSISFLPKDVKYITAIFEEVGKRALNVDMISLVPSNGKVFLSFTILEDHKEDLDEALKEALRDVEGWKSTYEGGFAKLSIVGVGMRTSPGVAARFFEALERAGVTPELVTTSEIKISCLVPEEKAEEALKSVIEEFEL”, the “soluble on expression in E. coli” value is reported as “not soluble”. For “GSHMASFNGVSEAELLTKTLPDILTFNLDIVIIGINPGLMAAYKGHHYPGPGNHFWKCLFMSGLSEVQLNHMDDHTLPGKYGIGFTNMVERTTPGSKDLSSKEFREGGRILVQKLQKYQPRIAVFNGKCIYEIFSKEVFGVKVKNLEFGLQPHKIPDTETLCYVMPSSSARCAQFPRAQDKVHYYIKLKDLRDQLKGIERNMDV”, the “soluble on expression in E. coli” value was “soluble”. For “MALNGTPALNVNWHGNYDVIVLGFGGAGASAARFAADNGAHVLVVDAAPFGREGGNTRYSAQHVVTGESLDKLTAYYQALGAPFSTPTKTLNAYLSGMSKIPAYFEKYLGIKAVSWKHDIKPGDAVAIKKTMAEYPELAGSDTIDFALVHKRDKDAALWKLLRQKVLERADNIDVWLDSRAQHLIQDPNTKVIQGVQIKRGERLLNIHANNGVVLAMGGFENNPELKQTYLHSDNLTPLGTLYNRGDGIKMAQEVDAKMWHMTNYESHGILPGLEHHHHHH”, the “soluble on expression in E. coli” value was “not soluble”. With “MSLNGTFEATKSCPAYLSKNRKSNPDNLMVEPNQKYQLKEINKTKPDWLRIQFSDHQPNLRWVSVDCGVIEYTERPKASCDLSPGMADSYVLALSSQPGFCETYGYEIGKPECLKLTKTVYQANHLILHGLWPNQEACGHNYGYCGISPRTNHCDYSPLDLSSDVAQNLKKLMPSYNYGSCLERHEWNKHGSCQDLSTDGYFSLAMRLTTEVNNTEFGQYLTAHRGDTVKLTTLRELIKRSFGENNTGKVTLSCKNGILVDIYVQLPALIPFKESLESLVDKASEGHHHHHH” the “soluble on expression in E. coli” value was “not soluble”. In the case of “MSSAYQLVIFDWEGTIADTLGVILHTVATEAKMLGFGDIDPYQARKYVDLGLVQAVKKTLPNLTAGQQEDLLQAVQSAMISRPTEVRLIPGVLEFIQQLHQAKVDLAIATNKGHNSLIRALQATELDQLFKVTRSAGQVPAKPCPQMLEEIMEEFGRDPSSTLMIGDSTTDMEMAKRINVNAIGMDFYHQQEDALKAAGALAVFDDYKLLSAYLMLPEA”, the “soluble on expression in E. coli” value is reported as “not soluble”. For “MSLTKMRESEIIRMFIEEFDNHALGDDAGFVRFNDSWLLVTSDMLVWRTDVPDFMTPEEAGKKVVTMNVSDIAAMGGLPLAFFFSLGVPENTDEKTLRGIAKGINKGAKEYGVKIVSGDTNEAREIIIDGGAIGRGSRLLLRSNAKPGDLVCVTGELGRPLTALLLWLKGEEIPPKILEKAKNPKAREREGIELSNYANSAIDISDGLSKELWEIARSSNVRIVIDEDKIPVNEEVREIVKDPIKIALASGEEFELVFTIPKENLGNISFDFTIIGRVEEGEGVYIKREDKMERLPILGWEHLKGGDYVNLEGHHHHHH”, the “soluble on expression in E. coli” value was “soluble”. For “MGHHHHHHSHMVDIDLPEPPKPTPPDQETEEEQRFRALFEQVAGEDMEVTAEELEYVLNAVLQKKKDIKFKKLSLISCKNIISLMDTSGNGKLEFDEFKVFWDKLKQWINLFLRFDADKSGTMSTYELRTALKAAGFQLSSHLLQLIVLRYADEELQLDFDDFLNCLVRLENASRVFQALSTKNKEFIHLNINEFIHLTMNI”, the “soluble on expression in E. coli” value was “soluble”. In the case of “MDKFKGAVMVGALRLFALLPWRAVQWVGTAIGWLMWKLPNRSREVARINLSKCFPELSEPELEKLVGRSLMDIGKTLTESACAWIWPAQKSINLVREVEGLEVLKDALASGKGVVGITSHLGNWEVLNHFYCSQCKPIIFYRPPKLKAVDDLLRKQRVQLGNRVAASTKEGILSVIKEVRKGGSVGIPADPEPAESAGIFVPFCGTQALTSKFVPNMLAGGKAVGVFLHAMRLPDGSGYKVVLEAAPEAMYSTDTQTSAAAMSKVVEKYVRAYPSQYMWTMKRFKK”, the “soluble on expression in E. coli” value is reported as “not soluble”. In the case of “MGFYLTSRIMKNIKSQGNGEQPAISRRHFIQASSALIALPFVSSPATAQARAVTATENRPAEKVVQTCSTFDCGGKCDIRAHVSDGIVTRISTRPDNALDAQMPVMRACVRGRAYRKFVYHPDRLKYPMKRVGKRGEGKFERISWDEATTLIADNLKSITEKYGPASRYVHVGTAVSGGTFSGDKMARRLLNLTGGYLESYHSVSMGNTAAATPYTYGIAASGSSLDTLLDTKLVILWGHNPTETIFGHTNYFLQKMKQNGTRFIVVDPRYSDTVSSLADQWIPLLPTTDNALMDAMMYVIISENLHDRAFIARYAIGFDEDSMPEGVPANESLVAYLTGAKDGVVKSPEWAEKITHVPAQTIRQLARDYANTKPAALIQGWGPQRHNCGERTARGSTLLATITGNVGIKGGWAAGYGGCANRKFAAGPEMPDNPVKAKISVMNWVQAADDASKVTPDMGLKDADKLDSNIRILFSLAGNYLANQNPDLHQAVRVLEDESKIQFIVASDLFMTPSAKYADLLLPETSFMERWNIGETWGTASYLILSEKLIEPEFERRSDYDWLREVAAKLGIENEFSQGRDEKAWIEHIWEQTRLAMPDENLPDFATLQKTRQHLFKSAPFIAFEDNIRDPENHPFPTPSGKIEIFSKRLYDMQHPEIPALSHYVPAHEGPEDALAKDFPLQLITWKGKNRANSTQYANPWLIEVQQQTLWINPQDAQKRGITHGDMVRIHNSRGICEIPAEVTPRIIPGVVAMQAGAWWQPDENGVDKGGCANVLSSARITALAKGNSHQTMLVEVAKA”, the “soluble on expression in E. coli” value is reported as “not soluble”. For “QVQLVQSGPELKKPGETVKISCKASGYMFTNYGMNWVKQAPGKALKWMGWINPYTGESTFADDFKGRFAFFLETSATTAYLQINNLKNEDTATYFCARGTTIVWAMDYWGQGTSVTVSSASTKGPSVFPLAPSSKSTSGGTAALGCLVKDYFPEPVTVSWNSGALTSGVHTFPAVLQSSGLYSLSSVVTVPSSSLGTQTYICNVNHKPSNTKVDKKVEPLSCDKTHT”, the “soluble on expression in E. coli” value was “soluble”. For “MSHAIQIREAHFPGRAPIDAYGNGGFRFADMSHRGSIICIPSGIYGIDMTGPVPTQEDISRVLEESDQIEVLLIGTGVELLRLPEELRVLLWEKRISSDTMSTGAAVRTFNVLLAEDRAVAALLFAVE”, the “soluble on expression in E. coli” value was “soluble”. With “MTDKYRLRERVWDDLEDSGVARFPFPPHGRIPNYAGADEAAARLTETDVWQRAETVKANPDAPQLPVRRAALRAGKTLYAAVPRLRDEECFLRLDPTTIDDIDAATTVSGIEEYGDPVGPGDVDPIDLIVSGSVAVTDRGERVGKGEGYSDLEFALLRAFGRVDDDTATVTTVHERQVVDDAVPTAAHDVPMEYVVTPDRTITTTHEDDTPSGIDWDALDEQRLAEIPVLDRRSP” the “soluble on expression in E. coli” value was “soluble”. In the case of “SSLPLNAIEPCVICQGRPKNGCIVHGKTGHLMACFTCAKKLKKRNKPCPVCRQPIQMIVLTYFP”, the “soluble on expression in E. coli” value is reported as “soluble”.

— the DeepSol protein solubility set
